Paper PMC11417181

T1: complement factor H, native glycosylated, full-length, purified from human plasma (human), P08603
T1 chain: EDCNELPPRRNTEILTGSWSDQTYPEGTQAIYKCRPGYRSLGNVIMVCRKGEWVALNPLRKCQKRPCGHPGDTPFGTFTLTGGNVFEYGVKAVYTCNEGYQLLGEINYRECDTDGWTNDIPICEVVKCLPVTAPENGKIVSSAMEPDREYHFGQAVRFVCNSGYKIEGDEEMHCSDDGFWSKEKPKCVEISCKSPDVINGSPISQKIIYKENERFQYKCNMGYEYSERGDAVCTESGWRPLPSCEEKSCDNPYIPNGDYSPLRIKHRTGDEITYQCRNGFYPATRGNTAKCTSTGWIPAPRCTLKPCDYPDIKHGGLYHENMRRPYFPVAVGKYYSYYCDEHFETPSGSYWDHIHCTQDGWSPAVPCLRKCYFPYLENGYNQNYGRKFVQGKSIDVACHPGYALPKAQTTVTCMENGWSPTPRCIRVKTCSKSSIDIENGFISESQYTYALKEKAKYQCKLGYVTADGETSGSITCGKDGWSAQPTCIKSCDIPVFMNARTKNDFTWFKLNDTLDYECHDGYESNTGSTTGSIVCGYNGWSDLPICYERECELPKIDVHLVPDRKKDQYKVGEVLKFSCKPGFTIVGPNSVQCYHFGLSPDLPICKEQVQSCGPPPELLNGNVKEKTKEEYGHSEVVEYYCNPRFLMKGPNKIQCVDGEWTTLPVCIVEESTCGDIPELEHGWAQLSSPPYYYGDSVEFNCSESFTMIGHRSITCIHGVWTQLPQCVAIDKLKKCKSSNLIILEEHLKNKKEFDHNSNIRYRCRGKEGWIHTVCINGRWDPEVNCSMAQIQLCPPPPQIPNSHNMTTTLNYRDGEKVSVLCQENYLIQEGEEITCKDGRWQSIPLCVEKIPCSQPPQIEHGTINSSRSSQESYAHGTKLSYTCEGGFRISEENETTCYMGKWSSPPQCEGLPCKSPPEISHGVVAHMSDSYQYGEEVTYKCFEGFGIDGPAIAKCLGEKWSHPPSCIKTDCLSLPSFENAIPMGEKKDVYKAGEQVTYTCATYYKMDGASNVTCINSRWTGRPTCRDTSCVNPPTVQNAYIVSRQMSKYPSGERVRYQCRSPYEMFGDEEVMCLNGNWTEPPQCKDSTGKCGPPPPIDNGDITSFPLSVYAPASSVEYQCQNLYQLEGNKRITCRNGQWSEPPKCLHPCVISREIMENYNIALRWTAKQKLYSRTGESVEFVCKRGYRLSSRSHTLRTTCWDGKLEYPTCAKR

T2: partially deglycosylated complement factor H (100 h PNGase F) (human), P08603
T2 chain: T1 chain

T3: fully deglycosylated complement factor H (200 h PNGase F) (human), P08603
T3 chain: T1 chain

B1: complement factor H, native glycosylated, full-length, purified from human plasma, P08603 19-1231 (natural protein)
chain: T1 chain
modifications: here or on the partner: eight N-linked biantennary complex-type glycans, among them those at Asn1011 (SCR-17) and Asn1077 (SCR-18); eight N-linked biantennary complex-type glycans, among them those at Asn1011 (SCR-17) and Asn1077 (SCR-18)
B2: partially deglycosylated complement factor H (100 h PNGase F), P08603 19-1231 (natural protein)
chain: T1 chain
modifications: here or on the partner: N-linked glycans partly removed with PNGase F: forms with three to six glycan chains were present; N-linked glycans partly removed with PNGase F: forms with three to six glycan chains were present
B3: fully deglycosylated complement factor H (200 h PNGase F), P08603 19-1231 (natural protein)
chain: T1 chain
modifications: here or on the partner: N-linked glycans removed with PNGase F: eight, seven, six or five removed, leaving none, one, two or three glycans; eight N-linked biantennary complex-type glycans, among them those at Asn1011 (SCR-17) and Asn1077 (SCR-18)

Experiments:
Settings in all cases: remark: other sources report otherwise
[1] = target: T1, complement factor H, native …; experiment: SPR; Biacore X100, biotinylated glycosylated CFH on a streptavidin chip (781 RU), CFH preparations flowed at 0.01 to 1.8 μM, Hepes buffer, single-cycle, 1:1 steady-state affinity fit
[2] = target: T1, complement factor H, native …; experiment: AUC; sedimentation velocity of full-length CFH, 20 °C, 40,000 rpm, Hepes buffer, 0.2 to 1.8 mg/ml, c(s) analysis in SEDFIT, proportions from peak integration; monomer to dimer
[3] = target: T2, partially deglycosylated complement …; experiment: as above
[4] = target: T3, fully deglycosylated complement factor …; experiment: as above

| Binder | Kd [1] [µM] | proportion of dimer [2] [%] | stoichiometry N [2] | proportion of dimer [3] [%] | stoichiometry N [3] | proportion of dimer [4] [%] | stoichiometry N [4] |
| --- | --- | --- | --- | --- | --- | --- | --- |
| B1 | 1.6 | 4 | 2 |  |  |  |  |
| B2 |  |  |  | 15 | 2 |  |  |
| B3 | 11.5 |  |  |  |  | 16 | 2 |
